Data published in patent US20240002497A1 (Merck Sharp & Dohme, published 2024).

Tests used:
[1] = biological target: T1, rhNav1.7α + β1-β2-β3 (rhesus Nav1.7α co-expressed with Navβ1, Navβ2 and Navβ3 on cells) (rhesus monkey (α subunit); β subunits …); test: binding FACS, CHO FlpIn cells
T1 construct: also called rhNav1.7-beta1-beta2-beta3; CHO FlpIn rhNav1.7α + β1-β2-β3
Outline: (§1)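 Cells in FACS buffer (PBS, 10% FBS, NaN₃) were incubated with purified FLAG3-tagged ISVD for 30 minutes at 4° C. Bound ISVD was detected by flow cytometry with murine anti-Flag, and dead cells were excluded with 1 μg/mL propidium iodide.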

[2] = biological target: T2, huNav1.7α + β1-β2-β3 (human Nav1.7α co-expressed with human Navβ1, Navβ2 and Navβ3 on cells) (human); test: binding FACS, CHO FlpIn cells
T2 construct: also called huNav1.7-beta1-beta2-beta3; CHO FlpIn huNav1.7α + β1-β2-β3
Outline: as §1

Row | Binder | Bmax [1] [%] | EC50 [1] [nM] | Bmax [2] [%] | EC50 [2] [nM]
1 | F010301840 (VHH, also called F0103387G04(R76_V78insT)(L11V, A12V, K33R, R39Q, S50Y, S56D, T83R, V89L, N93R)) VHH: EVQLVESGGGVVQPGGSLRLSCAASGPVFNINRMAWYRQAPGKQRELVAYVTPTGDISYTDSVKGRFTISRDGSKRTWSLQMNSLRPEDTALYYCRALLQPDSYSNTRTYWGQGTLVTVSS | 50 | 48 | 100 | 47
2 | F010301845 (VHH, also called F0103387G04(L11V, A12V, K33R, R39Q, S50Y, S56D, W78V, T83R, V89L, N93R)) VHH: EVQLVESGGGVVQPGGSLRLSCAASGPVFNINRMAWYRQAPGKQRELVAYVTPTGDISYTDSVKGRFTISRDGSKRVSLQMNSLRPEDTALYYCRALLQPDSYSNTRTYWGQGTLVTVSS | 100 | 8 | 100 | 17
3 | F010302385 (VHH, also called F0103387G04(L11V, A12V, K33R, R39Q, S50Y, S56D, T60A, D72Q, W78V, S79Y, T83R, V89L, N93R, D99S, N100cG)) VHH: EVQLVESGGGVVQPGGSLRLSCAASGPVFNINRMAWYRQAPGKQRELVAYVTPTGDISYADSVKGRFTISRQGSKRVYLQMNSLRPEDTALYYCRALLQPSSYSGTRTYWGQGTLVTVSS | 100 | 5 | 100 | 7.9
4 | F010302370 (VHH, also called F0103387G04(L11V, A12V, K33R, R39Q, S50Y, S56D, T60A, G73R, W78V, S79Y, T83R, V89L, N93R, D99S, N100cI)) VHH: EVQLVESGGGVVQPGGSLRLSCAASGPVFNINRMAWYRQAPGKQRELVAYVTPTGDISYADSVKGRFTISRDRSKRVYLQMNSLRPEDTALYYCRALLQPSSYSITRTYWGQGTLVTVSS | 100 | 7.3 | 100 | 9
5 | F010301848 (VHH, also called F0103387G04(L11V, A12V, K33R, R39Q, S50Y, S56D, T60A, G73N, W78V, S79Y, T83R, V89L, N93R)) VHH: EVQLVESGGGVVQPGGSLRLSCAASGPVFNINRMAWYRQAPGKQRELVAYVTPTGDISYADSVKGRFTISRDNSKRVYLQMNSLRPEDTALYYCRALLQPDSYSNTRTYWGQGTLVTVSS | 100 | 19 | 100 | 44
6 | F010302372 (VHH, also called F0103387G04(L11V, A12V, K33R, R39Q, S50Y, S56D, T60A, G73R, W78V, S79Y, T83R, V89L, N93R, S100V, N100cI)) VHH: EVQLVESGGGVVQPGGSLRLSCAASGPVFNINRMAWYRQAPGKQRELVAYVTPTGDISYADSVKGRFTISRDRSKRVYLQMNSLRPEDTALYYCRALLQPDVYSITRTYWGQGTLVTVSS | 100 | 20 | 100 | 17
7 | F010302314 (VHH, also called F0103387G04(L11V, A12V, K33R, R39Q, S50Y, S56D, T60A, G73R, W78V, S79Y, T83R, V89L, N93R, N100cI)) VHH: EVQLVESGGGVVQPGGSLRLSCAASGPVFNINRMAWYRQAPGKQRELVAYVTPTGDISYADSVKGRFTISRDRSKRVYLQMNSLRPEDTALYYCRALLQPDSYSITRTYWGQGTLVTVSS | 98 | 14 | 100 | 16
8 | F010302384 (VHH, also called F0103387G04(L11V, A12V, K33R, R39Q, S50Y, S56D, T60A, D72G, W78V, S79Y, T83R, V89L, N93R, D99S, N100cI)) VHH: EVQLVESGGGVVQPGGSLRLSCAASGPVFNINRMAWYRQAPGKQRELVAYVTPTGDISYADSVKGRFTISRGGSKRVYLQMNSLRPEDTALYYCRALLQPSSYSITRTYWGQGTLVTVSS | 100 | 4.3 | 100 | 6.2
9 | F010302313 (VHH, also called F0103387G04(L11V, A12V, K33R, R39Q, S50Y, S56D, T60A, G73A, W78V, S79Y, T83R, V89L, N93R, N100cI)) VHH: EVQLVESGGGVVQPGGSLRLSCAASGPVFNINRMAWYRQAPGKQRELVAYVTPTGDISYADSVKGRFTISRDASKRVYLQMNSLRPEDTALYYCRALLQPDSYSITRTYWGQGTLVTVSS | 96 | 34 | 100 | 38
10 | F010302329 (VHH, also called F0103387G04(L11V, A12V, K33R, R39Q, S50Y, S56D, T60A, W78V, S79Y, T83R, V89L, N93R, S100R)) VHH: EVQLVESGGGVVQPGGSLRLSCAASGPVFNINRMAWYRQAPGKQRELVAYVTPTGDISYADSVKGRFTISRDGSKRVYLQMNSLRPEDTALYYCRALLQPDRYSNTRTYWGQGTLVTVSS | 44 | 19 | 94 | 7.6
11 | F010302317 (VHH, also called F0103387G04(L11V, A12V, K33R, R39Q, S50Y, S56D, T60A, G73R, W78V, S79Y, T83R, V89L, N93R, D99R, N100cI)-FLAG3-HIS6) VHH: EVQLVESGGGVVQPGGSLRLSCAASGPVFNINRMAWYRQAPGKQRELVAYVTPTGDISYADSVKGRFTISRDRSKRVYLQMNSLRPEDTALYYCRALLQPRSYSITRTYWGQGTLVTVSS | 13 | 19 | 91 | 6.8
12 | F010301847 (VHH, also called F0103387G04(L11V, A12V, K33R, R39Q, S50Y, S56D, T60A, G73N, R76N, W78V, S79Y, T83R, V89L, N93R)) VHH: EVQLVESGGGVVQPGGSLRLSCAASGPVFNINRMAWYRQAPGKQRELVAYVTPTGDISYADSVKGRFTISRDNSKNVYLQMNSLRPEDTALYYCRALLQPDSYSNTRTYWGQGTLVTVSS | 100 | 29 | 100 | 67
13 | F010302325 (VHH, also called F0103387G04(L11V, A12V, K33R, R39Q, S50Y, S56D, T60A, G73R, W78V, S79Y, T83R, V89L, N93R)) VHH: EVQLVESGGGVVQPGGSLRLSCAASGPVFNINRMAWYRQAPGKQRELVAYVTPTGDISYADSVKGRFTISRDRSKRVYLQMNSLRPEDTALYYCRALLQPDSYSNTRTYWGQGTLVTVSS | 99 | 8.7 | 96 | 13
14 | F010301846 (VHH, also called F0103387G04(L11V, A12V, K33R, R39Q, S50Y, S56D, S79Y, T83R, V89L, N93R)) VHH: EVQLVESGGGVVQPGGSLRLSCAASGPVFNINRMAWYRQAPGKQRELVAYVTPTGDISYTDSVKGRFTISRDGSKRWYLQMNSLRPEDTALYYCRALLQPDSYSNTRTYWGQGTLVTVSS | 100 | 11 | 100 | 21
15 | F010302315 (VHH, also called F0103387G04(L11V, A12V, K33R, R39Q, S50Y, S56D, T60A, W78V, S79Y, T83R, V89L, N93R, D99R, N100cI)) VHH: EVQLVESGGGVVQPGGSLRLSCAASGPVFNINRMAWYRQAPGKQRELVAYVTPTGDISYADSVKGRFTISRDGSKRVYLQMNSLRPEDTALYYCRALLQPRSYSITRTYWGQGTLVTVSS | 23 | 39 | 100 | 7.2
16 | F010302371 (VHH, also called F0103387G04(L11V, A12V, K33R, R39Q, S50Y, S56D, T60A, G73R, W78V, S79Y, T83R, V89L, N93R, D99N, S100V, N100cI)) VHH: EVQLVESGGGVVQPGGSLRLSCAASGPVFNINRMAWYRQAPGKQRELVAYVTPTGDISYADSVKGRFTISRDRSKRVYLQMNSLRPEDTALYYCRALLQPNVYSITRTYWGQGTLVTVSS | 100 | 10 | 100 | 9.4
17 | F010302331 (VHH, also called F0103387G04(L11V, A12V, K33R, R39Q, S50Y, S56D, T60A, G73R, W78V, S79Y, T83R, V89L, N93R, S100R)) VHH: EVQLVESGGGVVQPGGSLRLSCAASGPVFNINRMAWYRQAPGKQRELVAYVTPTGDISYADSVKGRFTISRDRSKRVYLQMNSLRPEDTALYYCRALLQPDRYSNTRTYWGQGTLVTVSS | 38 | 24 | 90 | 6
18 | F010302327 (VHH, also called F0103387G04(L11V, A12V, K33R, R39Q, S50Y, S56D, T60A, G73A, W78V, S79Y, T83R, V89L, N93R, D99R)) VHH: EVQLVESGGGVVQPGGSLRLSCAASGPVFNINRMAWYRQAPGKQRELVAYVTPTGDISYADSVKGRFTISRDASKRVYLQMNSLRPEDTALYYCRALLQPRSYSNTRTYWGQGTLVTVSS | 7 | 93 | 87 | 7
19 | F010302320 (VHH, also called F0103387G04(L11V, A12V, K33R, R39Q, S50Y, S56D, T60A, G73A, W78V, S79Y, T83R, V89L, N93R)) VHH: EVQLVESGGGVVQPGGSLRLSCAASGPVFNINRMAWYRQAPGKQRELVAYVTPTGDISYADSVKGRFTISRDASKRVYLQMNSLRPEDTALYYCRALLQPDSYSNTRTYWGQGTLVTVSS | 100 | 21 | 99 | 30
20 | F010302326 (VHH, also called F0103387G04(L11V, A12V, K33R, R39Q, S50Y, S56D, T60A, W78V, S79Y, T83R, V89L, N93R, D99R)) VHH: EVQLVESGGGVVQPGGSLRLSCAASGPVFNINRMAWYRQAPGKQRELVAYVTPTGDISYADSVKGRFTISRDGSKRVYLQMNSLRPEDTALYYCRALLQPRSYSNTRTYWGQGTLVTVSS | 32 | 18 | 89 | 6.2
21 | F010301866 (VHH, also called F0103387G04(L11V, A12V, K33R, R39Q, S50Y, S56D, T60A, R76N, W78V, S79Y, T83R, V89L, N93R)) VHH: EVQLVESGGGVVQPGGSLRLSCAASGPVFNINRMAWYRQAPGKQRELVAYVTPTGDISYADSVKGRFTISRDGSKNVYLQMNSLRPEDTALYYCRALLQPDSYSNTRTYWGQGTLVTVSS | 100 | 18 | 100 | 38
22 | F010302386 (VHH, also called F0103387G04(L11V, A12V, K33R, R39Q, S50Y, S56D, T60A, D72Q, W78V, S79Y, T83R, V89L, N93R, D99S, N100cI)) VHH: EVQLVESGGGVVQPGGSLRLSCAASGPVFNINRMAWYRQAPGKQRELVAYVTPTGDISYADSVKGRFTISRQGSKRVYLQMNSLRPEDTALYYCRALLQPSSYSITRTYWGQGTLVTVSS | 100 | 4.9 | 100 | 7.3
23 | F010302330 (VHH, also called F0103387G04(L11V, A12V, K33R, R39Q, S50Y, S56D, T60A, G73A, W78V, S79Y, T83R, V89L, N93R, S100R)) VHH: EVQLVESGGGVVQPGGSLRLSCAASGPVFNINRMAWYRQAPGKQRELVAYVTPTGDISYADSVKGRFTISRDASKRVYLQMNSLRPEDTALYYCRALLQPDRYSNTRTYWGQGTLVTVSS | 23 | 200 | 93 | 10
